Assays:
[1] = test system: GST-BAD S112A [GST: P08515]
[2] = test system: GST-BAD S112A/S136A
[3] = test system: GST-BAD S155A
[4] = test system: T1, Full-length BAD (wildtype), in vitro translated, 35S-methionine labelled, buffer control
T1 sequence: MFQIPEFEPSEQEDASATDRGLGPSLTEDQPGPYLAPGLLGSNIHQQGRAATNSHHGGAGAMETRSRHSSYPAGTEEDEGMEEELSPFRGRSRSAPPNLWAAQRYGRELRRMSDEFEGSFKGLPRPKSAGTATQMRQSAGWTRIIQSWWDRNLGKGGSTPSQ

[5] = test system: GST-BAD S112A/S136A/S155A
[6] = test system: T2, GST-BAD (GST-tagged shorter murine BAD)
T2 sequence: T1 sequence

[7] = test system: GST-BAD S136A

PKA (cAMP-dependent protein kinase), catalytic subunit from bovine heart
in vitro phosphorylation (32P incorporation, autoradiography) [1]: the shorter murine BAD, and BAD mutants containing mutations at the serine at a position corresponding to Ser112 and/or Ser136, were good in vitro substrates for PKA | in vitro phosphorylation (32P incorporation, autoradiography) [2]: the shorter murine BAD, and BAD mutants containing mutations at the serine at a position corresponding to Ser112 and/or Ser136, were good in vitro substrates for PKA | in vitro phosphorylation (32P incorporation, autoradiography) [3]: dramatically reduced the phosphorylation of the single mutant GST-BAD S155A | gel-mobility shift after incubation with PKA and ATP [4]: phosphorylation by PKA induced a gel-mobility shift of wild-type BAD | in vitro phosphorylation (32P incorporation, autoradiography) [5]: abolished phosphorylation of the triple mutant GST-BAD S112A/S135A/S155A | in vitro phosphorylation (32P incorporation, autoradiography) [6]: the shorter murine BAD, and BAD mutants containing mutations at the serine at a position corresponding to Ser112 and/or Ser136, were good in vitro substrates for PKA | in vitro phosphorylation (32P incorporation, autoradiography) [7]: the shorter murine BAD, and BAD mutants containing mutations at the serine at a position corresponding to Ser112 and/or Ser136, were good in vitro substrates for PKA

Reference: patent publication US7193044
